# From PMC7225057 (Journal of molecular biology, 2020)
# Target: FITC-sCT(22–32) (salmon, FITC label)
# Assay: fluorescence polarisation
binder,measurement,value
"RAMP1-CTR.34–141 WT (tethered RAMP1-CTR ECD fusion, AMY1 receptor ECD) (receptor, N-glycosylated (HEK293S GnTI−, enzyme treatment: none)) TTACQEANYGALLRELCLTQFQVDMEAVGETLWCDWGRTIRSYRELADCTWHMAEKLGCFWPNAEVDRFFLAVHGRYFRSCPISGRAVIEPKPFLYVVGRKKMMDAQYKCYDRMQQLPAYQGEGPYCNRTWDGWLCWDDTPAGVLSYQFCPDYFPDFDPSEKVTKYCDEKGVWFKHPENNRTWSNYTMCNAFTPEK",Kd,280 nM
same,pKD,6.56
